Reference: PMC7954794 (2021)

B1: S. cerevisiae Abp1 (full length; SH3 domain 535-592 mutated) / Hua2 (parent complex)
chain 1: MALEPIDYTTHSREIDAEYLKIVRGSDPDTTWLIISPNAKKEYEPESTGSSFHDFLQLFDETKVQYGLARVSPPGSDVEKIIIIGWCPDSAPLKTRASFAANFAAVANNLFKGYHVQVTARDEDDLDENELLMKISNAAGARYSIQTSSKQQGKASTPPVKKSFTPSKSPAPVSKKEPVKTPSPAPAAKISSRVNDNNDDDDWNEPELKERDFDQAPLKPNQSSYKPIGKIDLQKVIAEEKAKEDPRLVQKPTAAGSKIDPSSDIANLKNESKLKRDSEFNSFLGTTKPPSMTESSLKNDDDKVIKGFRNEKSPAQLWAERKAKQNSGNAETKAEAPKPEVPEDEPEGEPDVKDLKSKFEGLAASEKEEEEMENKFAPPPKKSEPTIISPKPFSKPQEPVKAEEAEQPKTDYKKIGNPLPGMHIEADNEEEPEENDDDWDDDEDEAAQPPLPSRNVASGAPVQKEEPEQEEIAPSLPSRNSIPAPKQEEAPEQAPEEEIEEEAEEAAPQLPSRSSAAPPPPPRRATPEKKPKENPWATAEYDYDAAEDNELTFVENDKIINIEFVDDDWWLGELEKDGSKGLFPSNYVSLGN
chain 2: MQQTKFGKMYLDHDSVVEYSEDEIVEADRITLGYKKRLSMIENQMRHLLEDFSLDVQQIEPILADLQKYYDAFLQLLQKRNKSLQCKRSTHQPVPSPMNSQTSTNAKVNLSGKLMKFQLNSVQKFDEENILRILQNKIEFEHYFQIDKGKKQKVLLLAVYQCLNGPTRLHKVLNIEGIIHNNSIRTILGKQVSSSKWTVFLYDVKLVLLAHRQDVPNLETSKMIVRYGDLFPCALYFKDHTAY

Variants of: B1
Assay: DHFR protein-fragment complementation in yeast (Abp1-DHFR F[1,2] x partner-DHFR F[3]), deep mutational scanning, second methotrexate selection vs reference; S. cerevisiae, DHFR-PCA selection in liquid with methotrexate at 30 C, two 72 h selections (the score uses the second); reference = the pre-selection culture

Variant | screen value
chain 1 MALEPIDYTTHSREIDAEYLKIVRGSDPDTTWLIISPNAKKEYEPESTGSSFHDFLQLFDETKVQYGLARVSPPGSDVEKIIIIGWCPDSAPLKTRASFAANFAAVANNLFKGYHVQVTARDEDDLDENELLMKISNAAGARYSIQTSSKQQGKASTPPVKKSFTPSKSPAPVSKKEPVKTPSPAPAAKISSRVNDNNDDDDWNEPELKERDFDQAPLKPNQSSYKPIGKIDLQKVIAEEKAKEDPRLVQKPTAAGSKIDPSSDIANLKNESKLKRDSEFNSFLGTTKPPSMTESSLKNDDDKVIKGFRNEKSPAQLWAERKAKQNSGNAETKAEAPKPEVPEDEPEGEPDVKDLKSKFEGLAASEKEEEEMENKFAPPPKKSEPTIISPKPFSKPQEPVKAEEAEQPKTDYKKIGNPLPGMHIEADNEEEPEENDDDWDDDEDEAAQPPLPSRNVASGAPVQKEEPEQEEIAPSLPSRNSIPAPKQEEAPEQAPEEEIEEEAEEAAPQLPSRSSAAPPPPPRRATPEKKPKENPWATAEYDYDAAEDNELTFVENDKIINIEFVDDDWWLGELEKDGSKGLFPSNYVSLGA [chain 1 N592A] | 0.381 DMS score: mean over two replicates of log2(f_test/f_ref + 0.5)/ln 2, minus the synonymous-codon median (not a log2 …
chain 1 MALEPIDYTTHSREIDAEYLKIVRGSDPDTTWLIISPNAKKEYEPESTGSSFHDFLQLFDETKVQYGLARVSPPGSDVEKIIIIGWCPDSAPLKTRASFAANFAAVANNLFKGYHVQVTARDEDDLDENELLMKISNAAGARYSIQTSSKQQGKASTPPVKKSFTPSKSPAPVSKKEPVKTPSPAPAAKISSRVNDNNDDDDWNEPELKERDFDQAPLKPNQSSYKPIGKIDLQKVIAEEKAKEDPRLVQKPTAAGSKIDPSSDIANLKNESKLKRDSEFNSFLGTTKPPSMTESSLKNDDDKVIKGFRNEKSPAQLWAERKAKQNSGNAETKAEAPKPEVPEDEPEGEPDVKDLKSKFEGLAASEKEEEEMENKFAPPPKKSEPTIISPKPFSKPQEPVKAEEAEQPKTDYKKIGNPLPGMHIEADNEEEPEENDDDWDDDEDEAAQPPLPSRNVASGAPVQKEEPEQEEIAPSLPSRNSIPAPKQEEAPEQAPEEEIEEEAEEAAPQLPSRSSAAPPPPPRRATPEKKPKENPWATAEYDYDAAEDNELTFVELDKIINIEFVDDDWWLGELEKDGSKGLFPSNYVSLGN [chain 1 N556L] | -0.482 DMS score: mean over two replicates of log2(f_test/f_ref + 0.5)/ln 2, minus the synonymous-codon median (not a log2 …
chain 1 MALEPIDYTTHSREIDAEYLKIVRGSDPDTTWLIISPNAKKEYEPESTGSSFHDFLQLFDETKVQYGLARVSPPGSDVEKIIIIGWCPDSAPLKTRASFAANFAAVANNLFKGYHVQVTARDEDDLDENELLMKISNAAGARYSIQTSSKQQGKASTPPVKKSFTPSKSPAPVSKKEPVKTPSPAPAAKISSRVNDNNDDDDWNEPELKERDFDQAPLKPNQSSYKPIGKIDLQKVIAEEKAKEDPRLVQKPTAAGSKIDPSSDIANLKNESKLKRDSEFNSFLGTTKPPSMTESSLKNDDDKVIKGFRNEKSPAQLWAERKAKQNSGNAETKAEAPKPEVPEDEPEGEPDVKDLKSKFEGLAASEKEEEEMENKFAPPPKKSEPTIISPKPFSKPQEPVKAEEAEQPKTDYKKIGNPLPGMHIEADNEEEPEENDDDWDDDEDEAAQPPLPSRNVASGAPVQKEEPEQEEIAPSLPSRNSIPAPKQEEAPEQAPEEEIEEEAEEAAPQLPSRSSAAPPPPPRRATPEKKPKENVWATAEYDYDAAEDNELTFVENDKIINIEFVDDDWWLGELEKDGSKGLFPSNYVSLGN [chain 1 P535V] | 1.51 DMS score: mean over two replicates of log2(f_test/f_ref + 0.5)/ln 2, minus the synonymous-codon median (not a log2 …

More lines, now with the values ahead:

screen value | Variant
-0.885 DMS score: mean over two replicates of log2(f_test/f_ref + 0.5)/ln 2, minus the synonymous-codon median (not a log2 … | chain 1 MALEPIDYTTHSREIDAEYLKIVRGSDPDTTWLIISPNAKKEYEPESTGSSFHDFLQLFDETKVQYGLARVSPPGSDVEKIIIIGWCPDSAPLKTRASFAANFAAVANNLFKGYHVQVTARDEDDLDENELLMKISNAAGARYSIQTSSKQQGKASTPPVKKSFTPSKSPAPVSKKEPVKTPSPAPAAKISSRVNDNNDDDDWNEPELKERDFDQAPLKPNQSSYKPIGKIDLQKVIAEEKAKEDPRLVQKPTAAGSKIDPSSDIANLKNESKLKRDSEFNSFLGTTKPPSMTESSLKNDDDKVIKGFRNEKSPAQLWAERKAKQNSGNAETKAEAPKPEVPEDEPEGEPDVKDLKSKFEGLAASEKEEEEMENKFAPPPKKSEPTIISPKPFSKPQEPVKAEEAEQPKTDYKKIGNPLPGMHIEADNEEEPEENDDDWDDDEDEAAQPPLPSRNVASGAPVQKEEPEQEEIAPSLPSRNSIPAPKQEEAPEQAPEEEIEEEAEEAAPQLPSRSSAAPPPPPRRATPEKKPKENPWATAEYDYDAAEDNELTFVENEKIINIEFVDDDWWLGELEKDGSKGLFPSNYVSLGN [chain 1 D557E]
0.542 DMS score: mean over two replicates of log2(f_test/f_ref + 0.5)/ln 2, minus the synonymous-codon median (not a log2 … | chain 1 MALEPIDYTTHSREIDAEYLKIVRGSDPDTTWLIISPNAKKEYEPESTGSSFHDFLQLFDETKVQYGLARVSPPGSDVEKIIIIGWCPDSAPLKTRASFAANFAAVANNLFKGYHVQVTARDEDDLDENELLMKISNAAGARYSIQTSSKQQGKASTPPVKKSFTPSKSPAPVSKKEPVKTPSPAPAAKISSRVNDNNDDDDWNEPELKERDFDQAPLKPNQSSYKPIGKIDLQKVIAEEKAKEDPRLVQKPTAAGSKIDPSSDIANLKNESKLKRDSEFNSFLGTTKPPSMTESSLKNDDDKVIKGFRNEKSPAQLWAERKAKQNSGNAETKAEAPKPEVPEDEPEGEPDVKDLKSKFEGLAASEKEEEEMENKFAPPPKKSEPTIISPKPFSKPQEPVKAEEAEQPKTDYKKIGNPLPGMHIEADNEEEPEENDDDWDDDEDEAAQPPLPSRNVASGAPVQKEEPEQEEIAPSLPSRNSIPAPKQEEAPEQAPEEEIEEEAEEAAPQLPSRSSAAPPPPPRRATPEKKPKENPWATAEYQYDAAEDNELTFVENDKIINIEFVDDDWWLGELEKDGSKGLFPSNYVSLGN [chain 1 D542Q]
